According to the MegaScale stability set (Tsuboyama et al. 2023):

B1: EEHEE_rd4_0647 (parent)
chain: MQVTWGNVTVTFSNPEEAKKYAEKVARKLGGQVELHNGQFRIK

Variants of: B1
Assay: folding stability dG (cDNA display proteolysis); higher = more stable
Conditions: PBS, room temperature

Variant | folding stability dG
MQVTWGCVTVTFSNPEEAKKYAEKVARKLGGQVELHNGQFRIK [N7C] | 15.3 kJ/mol
MQVTWGPVTVTFSNPEEAKKYAEKVARKLGGQVELHNGQFRIK [N7P] | 9.58 kJ/mol
MQVTWGQVTVTFSNPEEAKKYAEKVARKLGGQVELHNGQFRIK [N7Q] | 10.4 kJ/mol
MQVTWGKVTVTFSNPEEAKKYAEKVARKLGGQVELHNGQFRIK [N7K] | 11.4 kJ/mol
MQVTWGDVTVTFSNPEEAKKYAEKVARKLGGQVELHNGQFRIK [N7D] | 10.8 kJ/mol
MQVTWGNVTVTFSNPEEAKKYAEKVARKYGGQVELHNGQFRIK [L29Y] | 11 kJ/mol
MQVTWGNVTVTFSNPEEAKKYAEKVARKSGGQVELHNGQFRIK [L29S] | 8.46 kJ/mol
MQVTWGNVTVTFSNPEEAKKYAEKVARKMGGQVELHNGQFRIK [L29M] | 10.5 kJ/mol
MQVTWGNVTVTFDNPEEAKKYAEKVARKLGGQVELHNGQFRIK [S13D] | 11.5 kJ/mol
MQVTWGNVTVTFGNPEEAKKYAEKVARKLGGQVELHNGQFRIK [S13G] | 10.4 kJ/mol
MQVTWGNVTVTFWNPEEAKKYAEKVARKLGGQVELHNGQFRIK [S13W] | 9.78 kJ/mol
MQVTWGNVTVTFTNPEEAKKYAEKVARKLGGQVELHNGQFRIK [S13T] | 11.8 kJ/mol
MQVTWGNVTVTFRNPEEAKKYAEKVARKLGGQVELHNGQFRIK [S13R] | 11.8 kJ/mol
MQVTWGNWTVTFSNPEEAKKYAEKVARKLGGQVELHNGQFRIK [V8W] | 11.7 kJ/mol
MQVTWGNVTVTFSNPEEAKKYAEKVARKLGGQVEPHNGQFRIK [L35P] | 5.46 kJ/mol
MQVTWGNVTVTFSNPEEAKKYAEKVARKLGGQVEYHNGQFRIK [L35Y] | 13.1 kJ/mol
MQVTWGNVTVTCSNPEEAKKYAEKVARKLGGQVELHNGQFRIK [F12C] | 10.4 kJ/mol
MQVTWGNVTVTASNPEEAKKYAEKVARKLGGQVELHNGQFRIK [F12A] | 1.88 kJ/mol
MQVTWGNVTVTPSNPEEAKKYAEKVARKLGGQVELHNGQFRIK [F12P] | -3.64 kJ/mol
MQVTWGNVTVTFSNPEEAKKYAEKVAEKLGGQVELHNGQFRIK [R27E] | 10.9 kJ/mol

Variant | folding stability dG
MQVTWGNVTVTFSNPEEAKKYAEKVAMKLGGQVELHNGQFRIK [R27M] | 10.8 kJ/mol
MQVTWGNVTVTFSNPEEAKKYAEKVAWKLGGQVELHNGQFRIK [R27W] | 9.64 kJ/mol
MQVTWGNVTVTFSNPEEAKKYAEKVARKLGNQVELHNGQFRIK [G31N] | 4.45 kJ/mol
MQVTWGNVTVTFSNPEEAKKYAEKVARKLGEQVELHNGQFRIK [G31E] | 6.12 kJ/mol
MQVTWGNVTVTFSNPEEAKKYAEKVARKLGDQVELHNGQFRIK [G31D] | 4.4 kJ/mol
MQVTWGNVTVTFSNPEEAKKYAEKVARKLGSQVELHNGQFRIK [G31S] | 9.15 kJ/mol
MQVTWDNVTVTFSNPEEAKKYAEKVARKLGGQVELHNGQFRIK [G6D] | 12 kJ/mol
MQVTWANVTVTFSNPEEAKKYAEKVARKLGGQVELHNGQFRIK [G6A] | 9.43 kJ/mol
MQVTWGNVTVTFSNPEEAKKYANKVARKLGGQVELHNGQFRIK [E23N] | 10.2 kJ/mol
MQVEWGNVTVTFSNPEEAKKYAEKVARKLGGQVELHNGQFRIK [T4E] | 6.96 kJ/mol
MQVWWGNVTVTFSNPEEAKKYAEKVARKLGGQVELHNGQFRIK [T4W] | 8.82 kJ/mol
MQVPWGNVTVTFSNPEEAKKYAEKVARKLGGQVELHNGQFRIK [T4P] | 1.87 kJ/mol
MQVIWGNVTVTFSNPEEAKKYAEKVARKLGGQVELHNGQFRIK [T4I] | 12.4 kJ/mol
MQVTWGNVTVTFSNPEEAKKYAEKVARKLGGQVELHNGHFRIK [Q39H] | 12.3 kJ/mol
MQVTWGNVTVTFSNPEEAKKYAEKVARKLGGQVELHNGGFRIK [Q39G] | 12.9 kJ/mol
MQVTWGNVTVTFSNPEEAKKYAEKVARKLGGQSELHNGQFRIK [V33S] | 4.65 kJ/mol
MQVTWGNVTVTFSNPEEAKKYAEKVARKLGGQTELHNGQFRIK [V33T] | 5.1 kJ/mol
MQVTWGNVTVTFSNPEEAKKYAEKVARKLGGQPELHNGQFRIK [V33P] | 5.12 kJ/mol
MQVTWGNVTVTFSNPEEAKKYAEKVARKLGGQYELHNGQFRIK [V33Y] | 8.65 kJ/mol
MQVTWGNVTVTFSNPEEAKKYAEKVARKLGGQEELHNGQFRIK [V33E] | 1.5 kJ/mol

Variant | folding stability dG
MQVTWGNVTVTFSNPEEAKKYAEKVARKLGGQGELHNGQFRIK [V33G] | 1.15 kJ/mol
MQLTWGNVTVTFSNPEEAKKYAEKVARKLGGQVELHNGQFRIK [V3L] | 5.67 kJ/mol
MQVTWGNVTVTFSNPEEAKKYAEKVARKLGGQVELHNGQFKIK [R41K] | 10.6 kJ/mol
MQVTWGNVTVTFSNPEEAKKYAEKVARKLGGQVELHNGQFAIK [R41A] | 8.58 kJ/mol
MQVTWGNVTVTFSNPEEAKKYAEKVARKLGGQVELHNGQFEIK [R41E] | 9.4 kJ/mol
MQVTWGNVTVTFSNPEEAKKYAEKVARKLGGQVELHNGQFDIK [R41D] | 5.5 kJ/mol
MQVTWGNVTVTFSNPEEAFKYAEKVARKLGGQVELHNGQFRIK [K19F] | 12.3 kJ/mol
MQVTWGNVTVTFSNPEEAGKYAEKVARKLGGQVELHNGQFRIK [K19G] | 7.67 kJ/mol
MQVTWGNVTVTFSNPEEAKKYAEKVARKLGGQVELHNAQFRIK [G38A] | 5.51 kJ/mol
MQVTWGNVTVTFSNPEEAKKYAEKVARKLGGQVELHNVQFRIK [G38V] | 3.38 kJ/mol
MQVTWGNVTVTFSNPEEAKKYAEKVARKLGGQVELHNYQFRIK [G38Y] | 6.86 kJ/mol
MQVTWGNVTVTFSNPEEAKKYAEKVARKLGGQVELVNGQFRIK [H36V] | 14 kJ/mol
MQVTWGNVTVTFSNPEEAKKYAEKVARKLGGQVELKNGQFRIK [H36K] | 11.1 kJ/mol
MQVTWGNVTVTFSNPEEAKKYAEKVARKLGGQVELANGQFRIK [H36A] | 10.5 kJ/mol
MQVTWGNVTVTFSNDEEAKKYAEKVARKLGGQVELHNGQFRIK [P15D] | 8.03 kJ/mol
MQVTWGNVTVTFSNHEEAKKYAEKVARKLGGQVELHNGQFRIK [P15H] | 12.1 kJ/mol
MQVTWGNVTVTFSNVEEAKKYAEKVARKLGGQVELHNGQFRIK [P15V] | 12.3 kJ/mol
MQVTWGNVTVTFSNTEEAKKYAEKVARKLGGQVELHNGQFRIK [P15T] | 11.8 kJ/mol
MQVTWGNVTVTFSNPEEAKPYAEKVARKLGGQVELHNGQFRIK [K20P] | 3.55 kJ/mol
